The values below come from article PMC5158307, “Substrate specificity characterization for eight putative nudix hydrolases. Evaluation of criteria for substrate identification within the Nudix family” (Proteins, 2016).

Common to all, as to assay: purified protein
Settings in all cases: pH 7.6, 37 °C, 1 mM MgCl2, 10 mM Tris-HCl

Substrate in series [1]: Cc1cn([C@H]2C[C@H](O)[C@@H](COP(=O)(O)OP(=O)(O)OP(=O)(O)O)O2)c(=O)nc1N
From the text: (§1) Pi-sensor (MDCC-PBP) fluorescence, PPase coupled on Q5LBB1_BACFN
Substrate in series [2]: Nc1nc(=O)n([C@H]2C[C@H](O)[C@@H](COP(=O)(O)OP(=O)(O)OP(=O)(O)O)O2)cc1O
From the text: as §1
Substrate in series [3]: Cc1cn([C@@H]2O[C@H](COP(=O)(O)OP(=O)(O)OP(=O)(O)O)[C@@H](O)[C@H]2O)c(=O)nc1N
From the text: as §1
Substrate in series [4]: Nc1nc(=O)n([C@H]2C[C@H](O)[C@@H](COP(=O)(O)OP(=O)(O)OP(=O)(O)O)O2)cc1CO
From the text: as §1

B1: Q5LBB1_BACFN (Bacteroides fragilis NCTC 9343) (protein)
chain: MKSIEVVAAVIRLGEKYLCVQRGQTKFSYTSFRYEFPGGKVEEGESLQEALQREIMEEMDYVIEVGEKLLTVHHTYPDFEITMHAFLCHPVGQRYVLKEHIAAQWLSTREMAILDWAEADKPIVRKISEQ
For the protein B1, the Km in the series “purified protein [1]” amounted to 3.0 ± 0.8 µM; in the series “purified protein [2]” it was 9.2 ± 2.8 µM; in “purified protein [3]” it was 2.5 ± 1.2 µM; in “purified protein [4]”, 10 ± 5 µM. The kcat in the series “purified protein [1]” worked out at 14 ± 1 s⁻¹; in the series “purified protein [2]”, 0.78 ± 0.11 s⁻¹; in “purified protein [3]” it was 16 ± 3 s⁻¹; in “purified protein [4]”, 45 ± 11 s⁻¹. Moreover, the catalytic efficiency (kcat/Km) worked out at 4.8e+06 ± 1e+06 M⁻¹ s⁻¹ in “purified protein [1]”, 85000 ± 14000 M⁻¹ s⁻¹ in “purified protein [2]”, 6.7e+06 ± 2.4e+06 M⁻¹ s⁻¹ in the series “purified protein [3]” and 4.4e+06 ± 1e+06 M⁻¹ s⁻¹ in the series “purified protein [4]”.

A word on the Km: it is the substrate concentration at which the rate is half of its maximum. One may read the kcat as the number of substrate molecules converted per active site and unit of time at saturation. In general, kcat/Km refers to the second-order rate constant that governs catalysis at low substrate concentration.
